These are literature values, as cited in PMC2488365.

Broadly, the Kd is the free concentration of one partner at which half of the binding sites on the other are occupied at equilibrium, for simple one-to-one binding.

In the series the target is penton base (Human adenovirus 2) (UniProt P03276).
Sequence of UniProt P03276 (P03276 whole entry): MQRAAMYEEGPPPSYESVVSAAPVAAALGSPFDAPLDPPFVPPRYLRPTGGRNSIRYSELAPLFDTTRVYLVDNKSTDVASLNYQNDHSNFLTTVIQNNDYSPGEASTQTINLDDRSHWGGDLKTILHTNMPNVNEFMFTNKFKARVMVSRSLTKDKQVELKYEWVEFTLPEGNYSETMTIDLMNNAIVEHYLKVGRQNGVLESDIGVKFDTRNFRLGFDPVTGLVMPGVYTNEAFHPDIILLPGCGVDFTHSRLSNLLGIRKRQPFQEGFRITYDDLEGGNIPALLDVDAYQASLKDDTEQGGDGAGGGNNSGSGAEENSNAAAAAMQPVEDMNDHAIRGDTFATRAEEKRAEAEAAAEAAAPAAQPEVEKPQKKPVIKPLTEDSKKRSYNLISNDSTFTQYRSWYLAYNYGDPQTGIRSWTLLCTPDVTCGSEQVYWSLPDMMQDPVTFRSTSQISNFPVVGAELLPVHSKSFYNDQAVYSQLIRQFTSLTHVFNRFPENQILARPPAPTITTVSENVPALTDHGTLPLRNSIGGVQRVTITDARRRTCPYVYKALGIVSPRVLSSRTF

Take fiber (from UniProt P03275): the Kd is 200 nM.
